Test: soluble on expression in E. coli; label from the status in PepcDB or PDB records

Sequence | soluble on expression in E. coli
SMQICDTYNQKHSLFNAMNRFIGAVNNMDQTVMVPSLLRDVPLSEPEIDEVSVEVGGSGGCLEERTTPAPSPGSANESFFAPSRDMYSHYVLLKSIRNDIEWGVLHQPSSPPAGSEESTWKPKDILVGLSHLESADAGEEDLEQQFHYHLRGLHTVLSKLTRKANILTNRYKQEIGFSNWGH | soluble
MKLKYSGLTASGNTHPKFTRGDIYRDQYGGMVTIKGVAERRITYRREGYEYDCVMPVYQFRRDFTLVQAAPRSKPTSREKARANIQEIKKMLNVFRGKK | not soluble
MGSDKIHHHHHHMISNQILQNTIDGLKGITRTDLCVIDVEGKILAATFPNAEAFIEPAQAFVASPADSQVINGCQFFKVFDDHQLEYVLLAYGDSEDVYMIGKIASFQIQNLLVAYKERFDKDNFIKNLLLDNLLLVDIYNRAKKLHIDIEVRRVVFIVETNREKDGNELEKIRSLFGGKSKDFVTAVDEKNIIVVKELAENETYDDLRKTAEVILNLFRSEADGVHIAYGTVINELKEVSRSYKEARMALDVGKIFFEERNIIAYSQLGIGRLIYQLPIPLCKMFIKEIFDGKSPDDFDEEILSTINKFFENSLNVSETSRQLYIHRNTLVYRLDKLQKSTGLDLRVFEDAITFKIALMVVKYMKYMESMDY | not soluble
MPSTRCAHQMSTKKKAERVDNMIAFLKSAVQAQKEKGAQAEQAPGNAMMTSKLLEIWSVPQSTITEMRLLLTLGADPTPLFKDDFGEKTLADRIDNGSVCEECAEMYERTPIQINRSKKVDGVMALCLDGGGMRGLVSVVCLLYASRRLLGDETLPNLFDWFIGTSTGSMLALSMVNKISISECFFQYWDMKSQIFLRGSTVKRLLGDQVAVQTKNIDKVLGDCFPTQTLQECPTRLTIPALDISTAPARLHVFRNYSFTKPFGAPLNEDQDVLFREAARASSAAPTYFEPFIYGNKVLVDGSFVANYPLNVLFKEYDSFSKHQQPIHLAGVLSIGTGEPALAERKYKSGKSIRAKAMNIGHLSTLILEQVVGQDLTAVEMAQDRCHAHNIPFNRLSPKGISVRIDQIDDSKLMDMIWTTLIYLTENVHEIDQLGEMIYKLKSDPTERKRRSNTVL | not soluble
MKLKKTDVFNLDGTVKQTAFIHDQKTGKKNTLYLKPVQQDLMLYHAWLIQQNMNSEWLFPSTSRPDRPITEKQFYKIMARVGDLLGINYLGTHTMRKTGAYRVYTQSNYNIGLVMHLLNHSSEAMTLTYLGLDQASRENMLDQIDFG | not soluble
QLNQILRAANLHSFAVANLRQVEHATRPTKTMSAGLTIINVPAFYSSQHQLQKQYWTQLQHLIKQTKPTTDLILNFAANTGGSSAPMIAGLAAIIPDGTIYTGITNHHRNRPRMMYHGRITGGLGQDDVNFSQPTAAHFRHIYAIIGNQTASAAEVTIMALKRNPHVTLVGRSSAGYTSLNGGVFLNTAVAVMTIGTLKATVKIHGQQYFNNQPLKPDIPTLYQPLAPLQLGQSPHLDADFLSELRTIMKHYH | not soluble
MYKVSIICTNYNKAPWISDALDSFLSQVTDFEVEIIVIDDASTDDSREILKSYQKKSSGKIKLLFNETNIGITKTWIKACLYAKGKYIARCDGDDYWTDSFKLQKQVDVLEASKRSRWCNTDFDFVNSQGDLLYANAFSSGHTPLTDTYEKVLALKGMTMASTWLVDADLMRQVNQKINVDTPDDTFDIQLELFQLTQLTYIKDSTTIYRMTTDSDSRPTDTPKMIYRIQKLLDTQLNYLKKYNQVDTKEVSELLLQQDAKQEIRIHELSCFIQELQQTIVDKTKQQETREVELQNVIEEQKNQLSELRQQYHAIINSRQWKYTSKLIAFIRRKK | not soluble
MKTPRLPIAIQQAVMRRLRENLAQANLKLDRHYPEPKLVYTQRGTSAGTAWLESYEIRLNPVLLLENIDTFIAEVVPHELTHLLVWKHFGRKAPHGKEWKWMMESVLGVPARRTHQFALQSVRRNTFPYHCQCQQHQLTVRRHNRVVRGEAVYRCVHCGEPLVAGLEHHHHHH | not soluble
PAPTPSSSPVPTLSPEQQEMLQAFSTQSGMNLEWSQKCLQDNNWDYTRSAQAFTHLKAKGEIPEVAFMK | soluble
MSLIYPEKNREVLVQLMNQSKNASLIQAWIDDGNTTIAPEKIQVTFILTPPVSRVAGGSGQQLKIRKMPNNLPHNKESLFYLNVLDIPPNNPQNAGKNKIKLALQNRIKLLWRPSGIAPVDKKSLSQLNIKKKNNAISINNETANWITVTTIKAQNVKVNNESILLPPFSHNDITLKNNHASEYELTVVDDYGNNIHSKIAAREGHHHHHH | not soluble
MYAFVRFLEDNVCYALPVSCVRDFSPRSRLDFDNQKVYAVYRGPEELGAGPESPPRAPRDWGALLLHKAQILALAEDKSDLENSVMQKKIKIPKLSLNHVEEDGEVKDYGEEDLQLRHIKRPEGRKPSEVAHKSIEAVVARLEKQNGLSLGHSTCPEEVFVEASPGTEDMDSLEDAVVPRALYEELLRNYQQQQEEMRHLQQELERTRRQLVQQAKKLKEYGALVSEMKELRDLNRRLQDVLLLRLGSGPAIDLEKVKSECLEPEPELRSTFSEEANTSSYYPAPAPVMDKYILDNGKVHLGSGIWVDEEKWHQLQVTQGDSKYTKNLAVMIWGTDVLKNRSVTGVATKKKKDAVPKPPLSPHKLSIVRECLYDRIAQETVDETEIAQRLSKVNKYICEKIMDINKSCKNEERREAKYNLQ | soluble
MGSDKIHHHHHHMVMEVIKVKYKAFDVGAVSYNTDTQMGSFEYFPSFIKTGIELSPIKMPLAKNIYSFPQLDQNTFKGLPGLIADSLPDDFGNAVMNAWIASQGKSTSDITPLQRLQYTGMRGMGALTYSPATKRKNLNASQPIHIESLVSIAQDVLDKRQQFSVDLENNGQEDKEAMMSLMSVGMSAGGARPKAVLAFNNDLTQVRSGQTDAPEGFTHYLMKFDGVSEHNKNQETFGDPMGYGAMEYTYHILAKECGIDMMPCHLLNEGKRRHFITERFDRNGNDKIHVQTLNGLEHVSYKQIGSYSYAELFNTARKLKLSPDDAMQLFKRMVFNVISRNHDDHAKNFGFMLDKDHKWQLAPAYDLAYSYKPDSHWVSKHWMTLNGKQDNFTRDDFYSFEKLSPIFSKRKIDDVLNQTIEAVSQWDKYAAEHAVPNSLIKEISQNLRLFL | not soluble
AGTYNYGEALQKSIMFYEFQRSGDLPADKRDNWRDDSGMKDGSDVGVDLTGGWYDAGDHVKFNLPMSYTSAMLAWSLYEDKDAYDKSGQTKYIMDGIKWANDYFIKCNPTPGVYYYQVGDGGKDHSWWGPAEVMQMERPSFKVDASKPGSAVCASTAASLASAAVVFKSSDPTYAEKCISHAKNLFDMADKAKSDAGYTAASGYYSSSSFYDDLSWAAVWLYLATNDSTYLDKAESYVPNWGKEQQTDIIAYKWGQCWDDVHYGAELLLAKLTNKQLYKDSIEMNLDFWTTGVNGTRVSYTPKGLAWLFQWGSLRHATTQAFLAGVYAEWEGCTPSKVSVYKDFLKSQIDYALGSTGRSFVVGYGVNPPQHPHHRTAHGSWTDQMTSPTYHRHTIYGALVGGPDNADGYTDEINNYVNNEIACDYNAGFTGALAKMYKHSGGDPIPNFKAIEKITNDEVIIKAGLNSTGPNYTEIKAVVYNQTGWPARVTDKISFKYFMDLSEIVAAGIDPLSLVTSSNYSEGKNTKVSGVLPWDVSNNVYYVNVDLTGENIYPGGQSACRREVQFRIAAPQGTTYWNPKNDFSYDGLPTTSTVNTVTNIPVYDNGVKVFGNEP | soluble
MIIGLLNQKGGVGKTTLSVNLAASFARTGARVLLIDVDPQGSALDWAAAREGAPLFPVVGLPRATVHKEITQIGHNYDHIIIDGPPRVTDLARSALMASDFVLIPVQPSPYDIWAADGIVKLIDEARVYKENLKSAFVINRKIVNTAIGRDVGEALGVYPVHVLSANVAQRVIFAEAATQGKTVYEVDKQGLAAAEIEAVAAEIKELAQLEHHHHHH | not soluble
MGSDKIHHHHHHMTTVYSGLISCYNAYPKKHSYRVRRSDKGWHDGAVWYLEKAKIMLRNDNLKIKGLTPEQEENVRAIHAMNPAHILVECATNKSWGGKKELSDLDLDSYKKAADTLYEEGFGLCIRYNRQTSIKEFIQQIVDHIGAAQYDNVETGKQTIKLIRRDYKPEDLPVFNYDNGILSVRDDDSGATDKQPNQVIVKYREPVSNRDDQAIANNIASVRMHGVISKTVEYKGVPTFDLAARLARDLELVASGLTRLKIVFDMRASELKPGDVVRVNLPDRDIVDVVFRVGKLENGNDGEIIATCIQDVFGLPAANYSTQKGESLYIPPDYTANPIQQARLIEVPYHVLPLVLSDAERAFVKPTDCFVWALGAQPTALSVGYDMLVDVGGGYTQTATGSFTPFVRLLEPVSPYQTNIKIKLEGDYAAVAGALALIVDDEIIKIDAVDFKTGTMTVGRGCADTVPQAHKADAVAWCYLLAAGTDESKYTVNERLNVKLLTRTAQQTLDESKAEVLTLTTQQRQARPFCVELGVPRPRRTSGQTDSALGRQHAPRRWRQL | not soluble
MSLKILTIVVMSGNVISLNRPSANAAIRLGFTYEGRFRNHAIYKGRSRDTDWFSIIDSEWPVLKKRFENWLSPENFDEQGQQKRSLRDC | not soluble
MSLASVKEAAAVRPPLNQILFGPPGTGKTYEAIEKALEILDPSFLLQLGDDESNERRRALKRRYDELAKEGLVQFVTFHQSFSYENFVEGLSASSDPDTKQVRYEVEDGVFKELCESARTRLVRRSDDAPLELSGRRIWKLSLGDSITEGHIFEECMEKGLALMGFGNNADFSQCQSREDIQKMFAASGEPLSLGAYPITAIKTFVCQMKLGDLIVVSEGNLKFRAIGEITGDYQLLPRDSDTYSQARPVRWLRGYKPALPYGALMENRFSQMTVYELRAGSIDHDKFRELLKSECIATGADRPHVLIIDEINRGNVSRIFGELITLIEPSKRSGAAEALEVLLPYSKDPFSVPDNVYLIGTMNTADRSLAGLDIALRRRFDFVEMAPRPDKLTGVKVAEIDISAVLETMNRRIEVLLDREHRLGHAYFMSLENSNDLSRLSNIFRQQIIPLLQEYFFEDWQRIAWILNDHRKDERFRFIVPAPYSVDSLFGDTGQVAQDSKAWRMNEEAFHKPQSYLGIVGDGKEGHHHHHH | soluble
MIAQQFNRARHILRHNLVRPFYQPKFYLESGKLAGFEALLRWYDEDNQIQLPKLIINAFEDYSLASRLSEKMQLNIFKDMASWINQGLQLVPVSINAAPVEFLKDNYAELLLERLNQFEIPYHLIEIEITEHLLDDQGKNFISRALAKLKQNGIRIALDDFGTGHSSLTRLANLPVDCLKIDCDFVQRMEQEKFISALVQSVILMSNNLGIDVVAEGIESQEQLELLKQQGCEVGQGFLFSQA | not soluble
MLNMPAEFEQFHWMVDMVQNVDMGLVVIDRDYNVQVWNGFMTHHSGLQSHEAIGRSIFDIFPEIPPEWFKLKTKPVYDLGCRSFITWRQRPYLFRCRNVRPVTQQAEFMYQNVTLNPMRTPTGKINSLFLSIQDATAEALMSQ | not soluble
MVYVAVLANIAGNLPALTAALSRIEEMREEGYEIEKYYILGNIVGLFPYPKEVIEVIKDLTKKENVKIIRGKYDQIIAMSDPHATDPGYIDKLELPGHVKKALKFTWEKLGHEGREYLRDLPIYLVDKIGGNEVFGVYGSPINPFDGEVLAEQPTSYYEAIMRPVKDYEMLIVASPMYPVDAMTRYGRVVCPGSVGFPPGKEHKATFALVDVDTLKPKFIEVEYDKKIIEERIRAEGLPEEIIKILYHGGRP | soluble
MQRETVWLVEDEQGIADTLVYMLQQEGFAVEVFERGLPVLDKARKQVPDVMILDVGLPDISGFELCRQLLALHPALPVLFLTARSEEVDRLLGLEIGADDYVAKPFSPREVCARVRTLLRRVKKFSTPSPVIRIGHFELNEPAAQISWFDTPLALTRYEFLLLKTLLKSPGRVWSRQQLMDSVWEDAQDTYDRTVDTHIKTLRAKLRAINPDLSPINTHRGMGYSLRGL | soluble
KCPRCGKSVYAAEKVMGGGKPWHKTCFRCAICGKSLESTNVTDKDGELYCKVCYAKNF | soluble

Reference: the DeepSol protein solubility set
